Results: patent CN117024595A (JIANGXI LECHENG XINSHENG BIOTECHNOLOGY RES CO LTD, dated 2023)

Target: T1, 带有His组氨酸标签蛋白的人ST2重组蛋白 (human, UniProt Q01638 19-328, limits assumed)
T1 construct: Captured on a His-capture BLI sensor; also called His-tagged recombinant human ST2 protein; not shown: His tag
T1 sequence (looked up): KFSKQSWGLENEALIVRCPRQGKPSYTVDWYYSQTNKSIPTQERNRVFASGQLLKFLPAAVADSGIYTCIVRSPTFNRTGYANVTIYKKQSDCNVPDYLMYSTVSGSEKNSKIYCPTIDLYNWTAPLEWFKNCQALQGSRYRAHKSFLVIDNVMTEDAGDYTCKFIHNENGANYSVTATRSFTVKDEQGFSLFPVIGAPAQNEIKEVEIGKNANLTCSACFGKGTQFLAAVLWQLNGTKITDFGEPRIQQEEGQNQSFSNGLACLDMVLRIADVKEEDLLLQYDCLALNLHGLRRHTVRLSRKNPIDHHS
Assay: BLI, His-tagged human ST2 captured on HIS sensor, antibody in solution at several concentrations

B1: 检测抗体D12(抗人ST2的单克隆抗体) (antibody, V domains shown)
VH: QVTLKESGPGILQPSQTLSLTCSFSGFSLSTSGMGVGWIRQPSGKGLEWLAHIWWDDVKQYNPALKSRLTISKDTSSSQVFLKIASVDTADIATYYCARLGGNWDYFDYWGQGTTLTVSS
VL: DIVLTQSPASLVVSLGQRATISCRASESVDSCGVSFMKWLQQKPGQPPKLLIYVASKVESGVPARFGGSGSGTDFSLNIHPVEEDDFAVYFCQQSRKVPWTFGGGTKLEIK
notes: Mouse hybridoma monoclonal antibody purified from ascites on Protein G; HRP-labelled in one orientation of the sandwich ELISA; coupled to fluorescent microspheres in the strip; also called detection antibody
B1 showed a Kd of 0.02 nM.
